This note sets out measurements from PMC6385126.

Data set [1] relates to His1 (position 1, -----HVD---). Briefly: NMR. The following applies: 25 °C; none stated (0.1% DSS as shift standard); Non-deuterated peptide, 1 mM, free in solution.
The test system of data set [2] is His1 (position 1, -----HVD---). Briefly: Raman. The following applies: 22 °C; not stated (no added salt apart from NaOH/HCl used for pH adjustment); none stated; C2-deuterated peptide H(C2-D)VD, about 10 mM, free in solution.

With “HVD tripeptide (Ac-His-Val-Asp-NH2), N-terminal fragment of a hydrogel-forming semenogelin I peptide (synthetic; sequence derived from Homo sapiens semenogelin I)”, the pKa was found to be 6.87 ± 0.03 in data set [1] and 6.82 in data set [2].
